From patent US20190010205A1 (JCR PHARMACEUTICALS, published 2019)

B1: 20K human growth hormone (ATGen Inc.) (ligand)
chain: FPTIPLSRLFDNAMLRAHRLHQLAFDTYQEFNPQTSLCFSESIPTPSNREETQQKSNLELLRISLLLIQSWLEPVQFLRSVFANSLVYGASDSNVYDLLKDLEEGIQTLMGRLEDGSPRTGQIFKQTYSKFDTNSHNDDALLKNYGLLYCFRKDMDKVETFLRIVQCRSVEGSCGF
B2: recombinant human growth hormone binding protein (rhGHBP, BioVision Inc.) (receptor, UniProt P10912 19-264, looked up)
chain: FSGSEATAAILSRAPWSLQSVNPGLKTNSSKEPKFTKCRSPERETFSCHWTDEVHHGTKNLGPIQLFYTRRNTQEWTQEWKECPDYVSAGENSCYFNSSFTSIWIPYCIKLTSNGGTVDEKCFSVDEIVQPDPPIALNWTLLNVSLTGIHADIQVRWEAPRNADIQKGWMVLEYELQYKEVNETKWKMMDPILTTSVPVYSLKVDKEYEVRVRSKQRNSGNYGEFSEVLYVTLPQMSQFTCEEDFY

Legend:
Assay in all cases: cell-based or functional assay
[1] = target: T1, human prolactin receptor (hPRLR) expressed on mouse BaF3 cells (BaF3/hPRLR cells) (human, UniProt P16471 25-622)
T1 sequence (looked up): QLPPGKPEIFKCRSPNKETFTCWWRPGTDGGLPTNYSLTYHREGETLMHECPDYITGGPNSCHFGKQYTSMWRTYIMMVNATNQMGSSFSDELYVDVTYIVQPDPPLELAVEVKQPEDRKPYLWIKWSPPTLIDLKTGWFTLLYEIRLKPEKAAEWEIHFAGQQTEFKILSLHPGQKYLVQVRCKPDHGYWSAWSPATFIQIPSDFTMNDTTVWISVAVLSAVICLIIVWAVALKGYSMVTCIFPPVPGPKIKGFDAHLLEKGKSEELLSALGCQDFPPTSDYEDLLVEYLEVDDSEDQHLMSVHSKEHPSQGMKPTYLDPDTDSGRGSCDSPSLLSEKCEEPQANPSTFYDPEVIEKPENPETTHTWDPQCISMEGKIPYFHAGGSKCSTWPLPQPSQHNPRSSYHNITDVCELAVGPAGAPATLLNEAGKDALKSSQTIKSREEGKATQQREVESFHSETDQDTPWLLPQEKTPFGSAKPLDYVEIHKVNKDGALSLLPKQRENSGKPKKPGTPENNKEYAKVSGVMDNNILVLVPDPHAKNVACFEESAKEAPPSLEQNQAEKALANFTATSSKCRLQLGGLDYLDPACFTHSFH

[2] = target: T2, human GH receptor (hGHR) expressed on mouse BaF3 cells (BaF3/hGHR cells) (human, UniProt P10912 19-638)
T2 sequence (looked up): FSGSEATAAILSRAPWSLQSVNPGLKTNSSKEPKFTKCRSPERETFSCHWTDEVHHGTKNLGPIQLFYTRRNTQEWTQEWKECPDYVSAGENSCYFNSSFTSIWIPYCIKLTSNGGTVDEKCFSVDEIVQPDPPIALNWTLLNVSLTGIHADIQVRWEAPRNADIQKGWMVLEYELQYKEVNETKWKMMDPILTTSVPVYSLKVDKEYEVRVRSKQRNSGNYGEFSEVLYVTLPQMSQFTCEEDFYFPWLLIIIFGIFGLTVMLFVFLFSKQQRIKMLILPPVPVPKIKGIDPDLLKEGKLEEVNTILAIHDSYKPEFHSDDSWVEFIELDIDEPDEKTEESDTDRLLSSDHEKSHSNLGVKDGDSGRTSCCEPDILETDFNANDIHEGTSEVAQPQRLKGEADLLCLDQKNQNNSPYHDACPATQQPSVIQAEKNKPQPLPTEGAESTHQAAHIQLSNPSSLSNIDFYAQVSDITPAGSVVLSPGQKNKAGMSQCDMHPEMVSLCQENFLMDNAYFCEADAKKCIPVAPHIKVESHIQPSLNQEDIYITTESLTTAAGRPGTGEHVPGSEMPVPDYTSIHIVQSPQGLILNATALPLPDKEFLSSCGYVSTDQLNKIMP

HSA-[linker]-20K hGH = HSA-[linker]-20K hGH (human)
HSA-20K hGH = HSA-20K hGH (human)

Binder | EC50 (row printed as ED50), prolactin-like activity using BaF3/hPRLR cells [1] [nM] | EC50 (row printed as ED50), cell growth activity using BaF3/hGHR cells [2] [nM] | IC50 of hGHBP against cell growth activity on BaF3/hGHR cells (by extrapolation) (HSA-[linker]-20K hGH) [nM] | IC50 of hGHBP against cell growth activity on BaF3/hGHR cells (by extrapolation) (HSA-20K hGH) [nM]
B1 | 0.27 | 0.00084 |  | 
B2 |  |  | 250 to 350 | 250 to 350
